Data set [1] addresses His-MBP-tagged N. fulvescens Atg17 (N. fulvescens). Description: negative stain EM.
Data set [2] deals with the molecule itself. Description: negative stain EM.

In general, stoichiometry N refers to a count of units in the complex or per binding partner. The molecule “His-MBP-tagged N. fulvescens Atg17 (natural protein)” registered a stoichiometry N in data set [1] of 2.

B1: His-MBP-tagged S. pombe Atg17 (natural protein, UniProt O42651 1-411, looked up)
chain: MELLQQWTQQAKAALTQARQLCGDAHKFNEDAKTDLRNSIKQHQQLKELAKLTASQCTRLDSSTALIKQLLDLVQNYPTFNQLNVLHDRLESSLKRLRDCTLDPALGSEYTNLYAFVDDTALEDLKTRLRGVTDGVWNAFEKLAGLLEEDLCANYHKRLEAVSLDFLPPAYNDTAEELADLLLQVAQHYDQCSEALNIYDTLSDAEKKDLQEVLQSDSNHVPSVLTELRSGLDQTIHYFNAVQSYKSKVDSATSILEALAEELNKNQLTNQRHEAAHELMRAQTGLEIPQLAQELVQLERHYTHFAKAYTALLQEIHRRQTYENCVRSIVDEFVGRLEKEQQAEAKCRIDFFNQYGDYLPQTLWGAVTDPPLHFEIIEHQYTELPNVKVIPDKNDKKSKQREKSSTTASKR
As to B1, the “stoichiometry N” value in data set [2] came to 2.

B2: His-MBP-tagged S. cerevisiae Atg17 (natural protein, UniProt Q06410 1-417, looked up)
chain: MNEADVTKFVNNARKTLTDAQLLCSSANLRIVDIKKKLSSWQLSISKLNFLIVGLRQQGKFLYTILKEGIGTKLIQKQWNQAVLVVLVDEMKYWQYEITSKVQRLDGIVNELSISEKDDTDPSKLGDYISRDNVNLLNDKLKEVPVIERQIENIKLQYENMVRKVNKELIDTKLTDVTQKFQSKFGIDNLMETNVAEQFSRELTDLEKDLAEIMNSLTQHFDKTLLLQDKKIDNDEREELFKVVQGDDKELYNIFKTLHEVIDDVDKTILNLGQFLQAKIKEKTELHSEVSEIINDFNRNLEYLLIFKDISNLIDSFKNSCTQDIQTTKELCEFYDNFEESYGNLVLEAKRRKDVANRMKTILKDCEKQLQNLDAQDQEERQNFIAENGTYLPETIWPGKIDDFSSLYTLNYNVKNP
Consider B2, for which, in data set [2], the “stoichiometry N” value is 2.
